We go through 8 molecules from patent publication US20220025021A1 (BETH ISRAEL DEACONESS MEDICAL CENTER, published 2022).

Where a chain is given by its changes, count along the chain named. Some results are limits rather than exact numbers.

Holding throughout (experiment): cell-based or functional assay
In one assay the target is HIV-1 pseudovirus 263-8 (HIV-1).
Assay [1] addresses HIV-1 pseudovirus SC05.8C11.2344 (HIV-1).
In assay [2] the target is HIV-1 pseudovirus X1193_c1 (HIV-1).
Assay [3] addresses HIV-1 pseudovirus Ce1176_A3 (HIV-1).
Assay [4] addresses HIV-1 pseudovirus AC10.0.29 (HIV-1).
Assay [5] deals with HIV-1 pseudovirus 6952.v1.c20 (HIV-1).
The target in assay [6] is HIV-1 Env of pseudovirus SC422661.8 (HIV-1).
Assay [7] deals with HIV-1 Env of pseudovirus RHPA4259.7 (HIV-1).
Assay [8] addresses HIV-1 Env of pseudovirus Du172.17 (HIV-1).
Assay [9] concerns the target HIV-1 Env of pseudovirus BB1012-11.TC21 (HIV-1).
Assay [10] has as its target HIV-1 Env of pseudovirus CNE52 (HIV-1).
For assay [11], the target named is HIV-1 Env of pseudovirus 0260.v5.c36 (HIV-1).

B1: MS-66 (antibody)
VH: not shown
VL: DIVLTQSPHSLSVTPGESASISCKSSHSLIHGDRNNYLAWYVQKPGRSPQLLIYLASSRASGVPDRFSGSGSDKDFTLKISRVETEDVGTYYCMQGRESPWTFGQGTKVDIKRTVAAPSVFIFPPSDEQLKSGTASVVCLLNNFYPREAKVQWKVDNALQSGNSQESVTEQDSKDSTYSLSSTLTLSKADYEKHKVYACEVTHQGLSSPVTKSFNRGEC
Regarding B1, the “IC50 (neutralization in TZM.bl cells)” value is 0.017 µg/mL with HIV-1 pseudovirus 263-8; 0.811 µg/mL in [1]; 0.086 µg/mL in assay [2]; 0.165 µg/mL in assay [3]; 0.035 µg/mL in [4]; 0.284 µg/mL in assay [5]. In addition, the “IC80 (neutralization in TZM.bl cells)” value was 0.06 µg/mL with HIV-1 pseudovirus 263-8; 2.54 µg/mL in assay [1]; 0.322 µg/mL in assay [2]; 5.43 µg/mL in assay [3]; 0.213 µg/mL in assay [4]; > 25 µg/mL in assay [5].

B2: MS-67 (antibody)
VH: not shown
VL: B1 VL with I2F, H9L
B2: the “IC50 (neutralization in TZM.bl cells)” value came out at 0.011 µg/mL with HIV-1 pseudovirus 263-8; 0.631 µg/mL in [1]; 0.075 µg/mL in [2]; 0.105 µg/mL in assay [3]; 0.031 µg/mL in assay [4]; 0.28 µg/mL in assay [5]. Also, the “IC80 (neutralization in TZM.bl cells)” value in the assay with HIV-1 pseudovirus 263-8 turned out to be 0.037 µg/mL; in assay [1] it was 2.14 µg/mL; in assay [2] it was 0.303 µg/mL; in assay [3] it was 1.9 µg/mL; in assay [4] it was 0.186 µg/mL; in [5], 7.89 µg/mL.

B3: MS-68 (antibody)
VH: not shown
VL: B1 VL with I2F, S12P
Regarding B3, the “IC50 (neutralization in TZM.bl cells)” value in the assay with HIV-1 pseudovirus 263-8 was 0.011 µg/mL; in [1], 0.708 µg/mL; in assay [2] it was 0.1 µg/mL; in [3] it was 0.096 µg/mL; in [4], 0.04 µg/mL; in assay [5] it was 0.206 µg/mL. Moreover, the “IC80 (neutralization in TZM.bl cells)” value in the assay with HIV-1 pseudovirus 263-8 stood at 0.038 µg/mL; in assay [1], 1.95 µg/mL; in assay [2], 0.287 µg/mL; in assay [3], 1.64 µg/mL; in assay [4], 0.169 µg/mL; in assay [5] it was 12.9 µg/mL.

B4: MS-69 (antibody)
VH: not shown
VL: B1 VL with I2F, S18P
With B4, the “IC50 (neutralization in TZM.bl cells)” value with HIV-1 pseudovirus 263-8 is 0.01 µg/mL; in assay [1], 0.456 µg/mL; in [2], 0.072 µg/mL; in assay [3], 0.087 µg/mL; in assay [4], 0.029 µg/mL; in assay [5] it was 0.182 µg/mL. Moreover, the “IC80 (neutralization in TZM.bl cells)” value came out at 0.046 µg/mL with HIV-1 pseudovirus 263-8; 1.69 µg/mL in [1]; 0.326 µg/mL in assay [2]; 1.71 µg/mL in [3]; 0.169 µg/mL in [4]; 3.06 µg/mL in assay [5].

B5: MS-66 (antibody)
VH: not shown
VL: B1 VL
B5: the “neutralization IC50” value in assay [6] worked out at 0.902 µg/mL; in assay [7], 0.238 µg/mL; in assay [8] it was 2.08 µg/mL; in [9], 0.017 µg/mL; in [10], 0.408 µg/mL; in assay [11], 0.024 µg/mL. Further, the “neutralization IC80” value worked out at 5.82 µg/mL in [6]; 0.745 µg/mL in assay [7]; 11.3 µg/mL in assay [8]; 0.074 µg/mL in [9]; 3.74 µg/mL in assay [10]; 0.092 µg/mL in assay [11].

B6: MS-67 (antibody)
VH: not shown
VL: B1 VL with I2F, H9L
Turning to B6, the “neutralization IC50” value was 0.549 µg/mL in assay [6]; 0.129 µg/mL in [7]; 1.76 µg/mL in assay [8]; 0.017 µg/mL in assay [9]; 0.212 µg/mL in [10]; 0.023 µg/mL in assay [11]. Also, the “neutralization IC80” value is 2.83 µg/mL in assay [6]; 0.706 µg/mL in assay [7]; 9.31 µg/mL in [8]; 0.071 µg/mL in assay [9]; 1.81 µg/mL in assay [10]; 0.088 µg/mL in [11].

B7: MS-92 (antibody, V domains shown)
VH: QVQLVQSGPEVRKPGTSVKVSCKAPGNTLKTYDLHWVRSVPGQGLEWMGWISHEGDKKVIVERFKAKVTIDRDRSTNTAYLQLSGLRSGDTAVYYCAKGSKHRLRDYALYDDDGALNWAVDVDYLSNLEFWGQGTAVTVSS
VL: DIVLTQSPHSLSVTPGESASISCKSSHSLIHGDRNNYLAWYVQKPGRSPQLLIYLASSRASGVPDRFSGSGSDKDFTLKISRVETEDVGTYYCMQGRESPWTFGQGTKVDIKR
On to B7, for which the “neutralization IC50” value in [6] stood at 1.53 µg/mL; in assay [7], 0.25 µg/mL; in assay [8], 6.85 µg/mL; in assay [9], 0.029 µg/mL; in assay [10], 3.92 µg/mL; in assay [11] it was 0.044 µg/mL. Further, the “neutralization IC80” value is > 25 µg/mL in assay [6]; 1.16 µg/mL in [7]; > 25 µg/mL in [8]; 0.127 µg/mL in assay [9]; > 25 µg/mL in assay [10]; 0.35 µg/mL in assay [11].

B8: MS-70 (antibody, V domains shown)
VH: B7 VH with E46Q, R72W, R87T
VL: B7 VL with I2F, R47Q
As for B8, the “IC50 (neutralization in TZM.bl cells)” value worked out at 0.016 µg/mL in the assay with HIV-1 pseudovirus 263-8; 0.508 µg/mL in [1]; 0.111 µg/mL in assay [2]; 0.06 µg/mL in assay [3]; 0.053 µg/mL in [4]; 0.285 µg/mL in assay [5]. Further, the “IC80 (neutralization in TZM.bl cells)” value with HIV-1 pseudovirus 263-8 amounted to 0.047 µg/mL; in [1], 1.36 µg/mL; in assay [2], 0.413 µg/mL; in [3], 0.968 µg/mL; in assay [4], 0.206 µg/mL; in assay [5], 4.84 µg/mL.
